Target: GST-Sec23p (yeast) (UniProt P15303)
Experiment: pull-down

Chain of GST-Sec23p (yeast) (P15303 2-768): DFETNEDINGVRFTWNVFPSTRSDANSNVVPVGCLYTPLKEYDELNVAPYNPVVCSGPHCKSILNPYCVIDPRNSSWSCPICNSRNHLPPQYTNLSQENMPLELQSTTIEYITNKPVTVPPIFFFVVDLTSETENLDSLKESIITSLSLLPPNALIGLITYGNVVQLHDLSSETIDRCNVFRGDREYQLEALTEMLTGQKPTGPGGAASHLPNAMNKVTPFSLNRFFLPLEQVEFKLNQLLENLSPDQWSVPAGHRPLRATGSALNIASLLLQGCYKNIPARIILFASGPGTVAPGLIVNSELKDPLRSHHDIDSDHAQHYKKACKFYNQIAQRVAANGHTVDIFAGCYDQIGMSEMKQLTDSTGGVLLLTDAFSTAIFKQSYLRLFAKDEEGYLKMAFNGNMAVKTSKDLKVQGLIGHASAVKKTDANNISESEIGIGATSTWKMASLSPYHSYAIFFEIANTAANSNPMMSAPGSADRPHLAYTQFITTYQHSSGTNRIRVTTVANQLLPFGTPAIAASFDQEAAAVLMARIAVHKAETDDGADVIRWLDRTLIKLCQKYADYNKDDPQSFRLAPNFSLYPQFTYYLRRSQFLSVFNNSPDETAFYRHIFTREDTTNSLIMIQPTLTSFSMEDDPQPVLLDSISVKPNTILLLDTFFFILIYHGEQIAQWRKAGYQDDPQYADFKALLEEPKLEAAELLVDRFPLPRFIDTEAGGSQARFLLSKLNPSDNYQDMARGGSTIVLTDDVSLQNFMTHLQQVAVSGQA

Kd: 630 nM
Substance: TRAPPI complex (from UniProt P36149 1-193)

Reference: paper PMC3093450
